For 2 substances, Kd, koff and kon results are on record in patent US20170224769A1.

pKd: −log10 of the molar value.

A word on the pKd: it is −log10 of the Kd, conventionally taken in molar units. A higher pKd goes with a small Kd. The koff is a measure of how fast the partners let go of each other. Read a high koff as a short-lived complex. In general, kon refers to the second-order rate constant of association. High values mean fast association, low ones slow association.

This assay concerns the target high mobility group box 1 protein (HMGB1) (Homo sapiens (Human)) (UniProt P09429). Description: SPR (Reichert SR7500DC), HMGB1 coated on CMDH chip.
Sequence of UniProt P09429 (P09429 whole entry, form in doubt): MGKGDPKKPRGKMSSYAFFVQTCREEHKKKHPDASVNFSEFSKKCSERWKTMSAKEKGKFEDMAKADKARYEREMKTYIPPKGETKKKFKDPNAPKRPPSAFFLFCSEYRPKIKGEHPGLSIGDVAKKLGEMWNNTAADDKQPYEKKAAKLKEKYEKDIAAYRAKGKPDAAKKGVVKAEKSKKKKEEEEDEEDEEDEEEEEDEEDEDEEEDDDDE

Turning to “rTAT-HMGB1A-his6 (fusion of the TAT peptide and the A box domain of HMGB1, C-terminal six histidines) (from UniProt P04608 49-57; P09429 1-164)”, the pKd was 7.12, the koff turned out to be 0.000691 s⁻¹ and the kon worked out at 9200 M⁻¹ s⁻¹.

The substance “rHMGB1A-his6 (high mobility group box 1 A domain, C-terminal six histidines) (from UniProt P09429 1-164)” gave a pKd of 5.55, a koff of 0.00394 s⁻¹ and a kon of 1400 M⁻¹ s⁻¹.
